Earlier results, collected in PMC11045845 (Nature Communications, 2024).
No end group written: not given here.

What was measured:
[1] = literature values for comparison
Method: Upon increasing the lipid concentration, the intensity at the emission maximum increased and the position of the maximum was blue-shifted to lower wavelengths. A maximum blue shift of (18 ± 2) nm in the presence of 2 mM POPC was determined (Fig. 2a, blue curve, Fig. 2b), accompanied by an increase in the maximum fluorescence intensity (Fig. 2a, c). The observed blue shift indicates the partitioning of the L-trypt ...

[2] = glycerylmonooleate BLMs
Description: For further support, single-channel proton conductance measurements would be desirable but cannot be performed at physiological conditions owing to orders of magnitudes too small proton concentrations.

cecropin A (KWKLFKKIEKVGQNIRDGIIKAGPAVAVVGQATQIAK; ends and bridges not checked; UniProt P01507 27-63, looked up) [antimicrobial peptide]
blue shift [1]: 15 nm

gramicidin A
single-channel conductance GK+ [2]: ≈ 29 pS

melittin
blue shift [1]: around 20 nm
